Reference: article PMC9639781

Molecular target: ATP synthase (endogenous, mouse cardiomyocytes) (mouse (endogenous in mouse neonatal cardiomyocytes)) (UniProt P56480)
Assay: native gel or EMSA

- stoichiometry N: 2
Substance: ATP synthase (endogenous, mouse cardiomyocytes) (from UniProt P56480 47-529; Q9DCX2 1-161; Q9DB20 24-213; Q9CQQ7 43-256) (complex)
